For one series, the target named is CBP bromodomain (UniProt Q92793 1081-1197). The series can be described thus: EMSA; same concentrations as HAT (up to 0.6 uM); no appreciable binding; 20 mM HEPES, 40 mM KCl, 1 mM EDTA, 0.2 mM DTT, 0.1 mg/ml BSA, 0.1% Tween-20, 20% glycerol, 0.1 mg/ml yeast tRNA; pH not stated; 1 h at 37 C; 1% agarose, 0.5x TBE. As to conditions: protein: commercial; tags: GST; label: fluorescein-12-UTP, internal. A general note: In EMSA bound probe runs differently from free probe, usually more slowly.
CBP bromodomain, sequence (Q92793 1081-1197): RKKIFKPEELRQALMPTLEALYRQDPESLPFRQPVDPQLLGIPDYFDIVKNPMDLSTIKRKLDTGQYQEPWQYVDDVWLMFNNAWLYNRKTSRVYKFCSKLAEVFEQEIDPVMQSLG

The target of series [1] is T1, CBP HAT domain (UniProt Q92793 1319-1710). The series can be described thus: EMSA; 20 nM RNA, 0.05-0.6 uM protein, yeast tRNA 0.1 mg/ml; almost complete binding at 0.6 uM; 20 mM HEPES, 40 mM KCl, 1 mM EDTA, 0.2 mM DTT, 0.1 mg/ml BSA, 0.1% Tween-20, 20% glycerol, 0.1 mg/ml yeast tRNA; pH not stated; 1 h at 37 C; 1% agarose, 0.5x TBE. The settings on record: protein: commercial; tags: GST; label: fluorescein-12-UTP, internal.
T1 sequence (Q92793 1319-1710): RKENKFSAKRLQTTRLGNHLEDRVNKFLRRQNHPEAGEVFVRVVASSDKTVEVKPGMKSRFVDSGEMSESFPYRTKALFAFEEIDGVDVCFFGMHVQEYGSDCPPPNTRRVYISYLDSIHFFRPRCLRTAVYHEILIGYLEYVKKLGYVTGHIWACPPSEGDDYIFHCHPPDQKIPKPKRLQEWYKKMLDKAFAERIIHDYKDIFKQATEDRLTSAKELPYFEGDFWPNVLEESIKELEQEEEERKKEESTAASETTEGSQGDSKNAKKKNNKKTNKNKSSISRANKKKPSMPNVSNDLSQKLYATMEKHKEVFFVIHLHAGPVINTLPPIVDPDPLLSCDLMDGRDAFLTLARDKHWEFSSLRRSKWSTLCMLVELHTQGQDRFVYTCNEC

Series [2] has as its target T1, CBP HAT domain. Description: competition; against labeled eRNA1; competitor up to 5 uM; 20 mM HEPES, 40 mM KCl, 1 mM EDTA, 0.2 mM DTT, 0.1 mg/ml BSA, 0.1% Tween-20, 20% glycerol, 0.1 mg/ml yeast tRNA; pH not stated; 1 h at 37 C; 1% agarose, 0.5x TBE. The settings on record: protein: commercial; tags: GST.
In series [3] the target is T1, CBP HAT domain. The series can be described thus: EMSA; 20 nM RNA, 0.05-0.6 uM protein, yeast tRNA 0.1 mg/ml; 20 mM HEPES, 40 mM KCl, 1 mM EDTA, 0.2 mM DTT, 0.1 mg/ml BSA, 0.1% Tween-20, 20% glycerol, 0.1 mg/ml yeast tRNA; pH not stated; 1 h at 37 C; 1% agarose, 0.5x TBE. As to conditions: protein: commercial; tags: GST; label: fluorescein-12-UTP, internal.

The source of these data is publication PMC7515708, “Enhancer RNAs predict enhancer–gene regulatory links and are critical for enhancer function in neuronal systems”.

B1: Fos eRNA1 (150 nt), labeled (ssRNA)
RNA: UUCGGCGGAACCCAAUACAUGGAGUCUGGAGGUUAAGAGACUGCCAAGAAGUCAAGCGGAAAGAGAAACAAGAACGGGAAAGGAAGCUUGGCUGUUCUGUGGGCUUUGGGGCUUUGACCUUGUCUGGAAGCCAUAAACUCGGCUCGAGGG
Consider B1, for which the binding result was “no binding” with CBP bromodomain and “binds” in the series with CBP HAT domain [1].

B2: Fos eRNA1 (150 nt), unlabeled competitor (ssRNA)
RNA: B1 RNA
In the case of B2, the binding result with CBP HAT domain [2] was “binds”.

B3: ctrl RNA (150), labeled (ssRNA)
RNA: GCUGCCAUCUGUCACCUAACAGGAGGAGGCUGAGAGUUACUUGUCUGGGAGACUUGCUGAGAGACAAGGACAGGCCCUGGAUCUCCUCAAUGUAGCCUGUCCGGGACUAUUCAGUUCUAUGAGGGACUUCUUAGAGAAACUAGGGUGCCC
As to B3, the binding result in the series with CBP HAT domain [3] is listed as “binds”.

B4: Fos eRNA3 (150), labeled (ssRNA)
RNA: CCUUACUAGCCGCUGAGCGUGCAGGCGUUGGGGACACUUUACACCGGGUUCAGAUUCCAGGGCCGCCACUCCAGGUGGAUAAUGAAGUACAGGCCAUAGUCUUUCUGUGCCCUAGACUGUCAUCUAUAACGUAAGCAUACUAGCAAGACC
Regarding B4, the binding result with CBP HAT domain [3] is given as “binds”.
